B1: BMP7: Bone Morphogenetic Protein used in the Mae et al (2013) protocol (protein, UniProt P18075 293-431, looked up)
Bone morphogenetic protein 7: STGSKQRSQNRSKTPKNQEALRMANVAENSSSDQRQACKKHELYVSFRDLGWQDWIIAPEGYAAYYCEGECAFPLNSYMNATNHAIVQTLVHFINPETVPKPCCAPTQLNAISVLYFDDSSNVILKKYRNMVVRACGCH
B2: WNT4: human recombinant WNT4 (R&D Systems) (protein, UniProt P56705 23-351, looked up)
Protein Wnt-4: SNWLYLAKLSSVGSISEEETCEKLKGLIQRQVQMCKRNLEVMDSVRRGAQLAIEECQYQFRNRRWNCSTLDSLPVFGKVVTQGTREAAFVYAISSAGVAFAVTRACSSGELEKCGCDRTVHGVSPQGFQWSGCSDNIAYGVAFSQSFVDVRERSKGASSSRALMNLHNNEAGRKAILTHMRVECKCHGVSGSCEVKTCWRAVPPFRQVGHALKEKFDGATEVEPRRVGSSRALVPRNAQFKPHTDEDLVYLEPSPDFCEQDMRSGVLGTRGRTCNKTSKAIDGCELLCCGRGFHTAQVELAERCSCKFHWCCFVKCRQCQRLVELHTCR
B3: WNT3A: human recombinant WNT3A (R&D Systems) (protein, UniProt P56704 19-352, looked up)
Protein Wnt-3a: SYPIWWSLAVGPQYSSLGSQPILCASIPGLVPKQLRFCRNYVEIMPSVAEGIKIGIQECQHQFRGRRWNCTTVHDSLAIFGPVLDKATRESAFVHAIASAGVAFAVTRSCAEGTAAICGCSSRHQGSPGKGWKWGGCSEDIEFGGMVSREFADARENRPDARSAMNRHNNEAGRQAIASHMHLKCKCHGLSGSCEVKTCWWSQPDFRAIGDFLKDKYDSASEMVVEKHRESRGWVETLRPRYTYFKVPTERDLVYYEASPNFCEPNPETGSFGTRDRTCNVSSHGIDGCDLLCCGRGHNARAERRREKCRCVFHWCCYVSCQECTRVYDVHTCK
B4: BMP4: BMP4 growth factor (R&D Systems) (protein, UniProt P12644 293-408, looked up)
Bone morphogenetic protein 4: SPKHHSQRARKKNKNCRRHSLYVDFSDVGWNDWIVAPPGYQAFYCHGDCPFPLADHLNSTNHAIVQTLVNSVNSSIPKACCVPTELSAISMLYLDEYDKVVLKNYQEMVVEGCGCR
B5: activin A: human recombinant activin A (Stemgent), growth factor (protein, UniProt P08476 311-426, looked up)
Inhibin beta A chain: GLECDGKVNICCKKQFFVSFKDIGWNDWIIAPSGYHANYCEGECPSHIAGTSGSSLSFHSTVINHYRMRGHSPFANLKSCCVPTKLRPMSMLYYDDGQNIIKKDIQNMIVEECGCS
modifications: Inhibin beta A chain activin A homodimer

Assays:
Format in all cases: cell-based
human iPSCs [1] = experiment: Differentiation of human iPSCs into mesoderm (qPCR/immunocytochemistry of MIXL1, BRACHYURY); conditions: 100 ng/ml activin A and 3 μM CHIR99021 used together; iPSC line 87iCTR-n3; peak at day 2
Description: Human iPSCs were split onto Matrigel-coated plates, and cultured in mTeSR®1 medium until 80% confluent. Three intermediate protocols were compared, according to Mae et al. (2013), Xia et al. (2013), and Takasato et al. (2014). […]
Total cellular RNA was isolated using Qiagen RNeasy Mini kit according to the manufacturer's recommendations (Qiagen). Of RNeasy-treated total RNA (1 μg) was used for cDNA synthesis using the Quantitect Reverse Transcription Kit for cDNA synthesis for PCR (Qiagen). […]

human iPSCs [2] = experiment: Differentiation of mesoderm into intermediate mesoderm (IM) (marker expression); conditions: for transient upregulation of BRACHYURY and MIXL1 seen during gastrulation: BMP4 vs BMP7 treatment, 87iCTR-n3 iPSC line
Description: (§1) Human iPSCs were split onto Matrigel-coated plates, and cultured in mTeSR®1 medium until 80% confluent. Three intermediate protocols were compared, according to Mae et al. (2013), Xia et al. (2013), and Takasato et al. (2014). The final protocol that achieved best efficiency and results for creating fallopian tube epithelium was a modified Mae et. al., (2013) protocol, as defined below. • Day 0-2: Cells were exposed to 100 ng/ml human recombinant activin A (Stemgent) and 3 μM CHIR99021 (Cayman Chemicals) to differentiate towards mesoderm, and cultured in DMEM/F12 (Gibco)+Glutamax (Invitrogen) supplemented with 500 U/ml penicillin streptomycin (Gibco) and 2% fetal bovine serum (FBS) with addition of 10 μM ROCK inhibitor Y-27632 (Stemgent). • Day 2-4: To differentiate towards IM, media was changed to DMEM/F12 (Gibco)+Glutamax (Invitrogen) supplemented with 0.1 mM non-essential amino acids (Invitrogen), 500 u/ml penicillin/streptomycin (Gibco), 0.55 mM 2-mercaptoethanol, 10% KOSR (Invitrogen), 100 ng/ml BMP4 (R&D Systems), 3 μM CHIR99021 (Cayman Chemicals), and 10 μM ROCK inhibitor Y-27632 (Stemgent). • Day 4-6: Spheroids were collected from wells and re-plated per methods described below. To differentiate the spheroid cultures towards Müllerian epithelium, media was changed to Fallopian tube media (FTM) containing DMEM/F12 (Gibco)+500 u/ml penicillin/streptomycin (Gibco), and 10 ml reconstituted Ultroser G (15950-017, Pall) and 10 μM ROCK inhibitor Y-27632 (Stemgent). To the FTM, 100 ng/ml human recombinant WNT4 (R&D Systems) with or without 3 μM CHIR99021(Cayman Chemicals), 100 ng/ml human recombinant WNT3A (R&D Systems) with or without 3 μM CHIR99021 (Cayman Chemicals) were added. • Day 6-8: FTM was changed and 20 ng/ml human recombinant Follistatin (Peprotech), 1 ng/ml estrogen and 33 ng/ml progestrone were added.
(§2) Total cellular RNA was isolated using Qiagen RNeasy Mini kit according to the manufacturer's recommendations (Qiagen). Of RNeasy-treated total RNA (1 μg) was used for cDNA synthesis using the Quantitect Reverse Transcription Kit for cDNA synthesis for PCR (Qiagen). Real-time PCR was performed using the SYBR Green Supermix (BioRad). The levels of expression of respective genes were normalized to corresponding GAPDH values and are shown as fold change relative to the value of the control sample. All sample analyses were carried out in triplicate.
(§3) Monolayer cultures were grown on poly-1-lysine and ornithine coated glass coverslips. Cells were washed once with phosphate buffered saline (PBS) and fixed with 4% paraformaldehyde (PFA) in 1× PBS for 20 minutes and permeabilized in PBS containing 0.5% Triton X-100 (PBS-T) (Sigma) for 5 minutes at room temperature. […]

[3] = test system: intermediate mesoderm (IM) cells derived from human iPSCs; experiment: Differentiation of intermediate mesoderm into Müllerian duct / FTE precursor vs nephric duct (marker expression); conditions: for expression of kidney markers SIX2 and FOXD1: qPCR, relative to iPSC day 0, 87iCTR-n3
Description: as §1, §2, §3

Row | Molecule | mesoderm induction (MIXL1 and BRACHYURY) (human iPSCs [1]) | transient upregulation of BRACHYURY and MIXL1 seen during gastrulation (human iPSCs [2]) | expression of kidney markers SIX2 and FOXD1 [3] | other results
1 | Cc1c[nH]c(-c2cnc(NCCNc3ccc(C#N)cn3)nc2-c2ccc(Cl)cc2Cl)n1 [CHIR99021, reference compound] | rapidly and efficiently specified human iPSCs (line 87iCTR-n3) into mesoderm |  |  | 
2 | B1 |  | not recapitulated |  | 
3 | B2 |  |  | lack of expression | expression of fallopian tube precursor (Müllerian duct) markers WT1 and OVGP1 ([3]; qPCR and immunocytochemistry, 100 ng/ml WNT4 on day 4 followed by 20 ng/ml Follistatin on day 6, WNT4/CHIR compared to WNT4 alone): upregulated expression over time
4 | B3 |  |  | increased expression | decreased levels of WT1 and OVGP1 compared to WNT4 treatment ([3]; WNT3A treatment (nephric duct differentiation) vs WNT4): ~10 fold
5 | B4 |  | expected transient upregulation |  | mesoderm differentiation into IM, based on expression of early IM markers PAX2, OSR1 and GATA3 (human iPSCs [2]; 100 ng/ml, day 2-4, compared with BMP7 of Mae et al protocol): optimal mesoderm differentiation into IM; expression of endoderm-marker SOX17 and ectoderm-marker NCAM (human iPSCs [2]; differentiation protocol that included BMP4, 87iCTR-n3): no to very low detectable expression levels
6 | B5 | rapidly and efficiently specified human iPSCs (line 87iCTR-n3) into mesoderm |  |  | 
